The target in the assay is T1, recombinant PML (wild-type 69 kDa isoform PML, PML3B) (UniProt P29590 1-560).
T1 construct: Untagged protein used in the co-transfection and co-localisation experiments; also called Promyelocytic Leukemia Protein
T1 sequence: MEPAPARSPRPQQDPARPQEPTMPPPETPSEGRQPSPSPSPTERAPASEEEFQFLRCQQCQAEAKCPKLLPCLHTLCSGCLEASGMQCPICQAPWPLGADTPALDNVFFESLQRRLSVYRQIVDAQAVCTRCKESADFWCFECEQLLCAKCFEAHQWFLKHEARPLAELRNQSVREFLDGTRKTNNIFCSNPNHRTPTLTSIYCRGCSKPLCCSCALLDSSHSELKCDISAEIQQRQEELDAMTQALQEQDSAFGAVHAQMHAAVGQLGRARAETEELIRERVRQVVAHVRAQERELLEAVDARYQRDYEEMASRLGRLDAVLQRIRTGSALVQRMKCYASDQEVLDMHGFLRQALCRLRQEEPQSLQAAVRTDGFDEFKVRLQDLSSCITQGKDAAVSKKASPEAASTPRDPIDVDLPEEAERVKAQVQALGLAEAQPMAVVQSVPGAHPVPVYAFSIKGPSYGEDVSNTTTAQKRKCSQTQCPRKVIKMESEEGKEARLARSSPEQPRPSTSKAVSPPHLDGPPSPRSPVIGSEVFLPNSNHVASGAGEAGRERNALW
Put plainly: co-localisation by immunostaining and EM in transiently co-transfected cells.

From US20030219410A1 (TRANSGENE S A, published 2003) come the findings set out here.

B1: recombinant wt pIX protein (other)
chain: MSTNSFDGSIVSSYLTTRMPPWAGVRQNVMGSSIDGRPVLPANSTTLTYETVSGTPLETAASAAASAAAATARGIVTDFAFLSPLASSAASRSSARDDKLTALLAQLDSLTRELNVVSQQLLDLRQQVSALKASSPPNAV
notes: Untagged protein used in the co-transfection and co-localisation experiments
As to B1, the binding result was “binds”.
